Source: patent EP4640235A1 (Toray Industries, Inc., dated 2025)

T1: human CAPRIN-1 protein expressed on cell membrane surfaces of human cancer cells (human, UniProt Q14444 2-709)
T1 construct: whole, on cells; Endogenous protein on human cancer cells; Flow cytometry was done without permeation of the cell membranes
T1 sequence (looked up): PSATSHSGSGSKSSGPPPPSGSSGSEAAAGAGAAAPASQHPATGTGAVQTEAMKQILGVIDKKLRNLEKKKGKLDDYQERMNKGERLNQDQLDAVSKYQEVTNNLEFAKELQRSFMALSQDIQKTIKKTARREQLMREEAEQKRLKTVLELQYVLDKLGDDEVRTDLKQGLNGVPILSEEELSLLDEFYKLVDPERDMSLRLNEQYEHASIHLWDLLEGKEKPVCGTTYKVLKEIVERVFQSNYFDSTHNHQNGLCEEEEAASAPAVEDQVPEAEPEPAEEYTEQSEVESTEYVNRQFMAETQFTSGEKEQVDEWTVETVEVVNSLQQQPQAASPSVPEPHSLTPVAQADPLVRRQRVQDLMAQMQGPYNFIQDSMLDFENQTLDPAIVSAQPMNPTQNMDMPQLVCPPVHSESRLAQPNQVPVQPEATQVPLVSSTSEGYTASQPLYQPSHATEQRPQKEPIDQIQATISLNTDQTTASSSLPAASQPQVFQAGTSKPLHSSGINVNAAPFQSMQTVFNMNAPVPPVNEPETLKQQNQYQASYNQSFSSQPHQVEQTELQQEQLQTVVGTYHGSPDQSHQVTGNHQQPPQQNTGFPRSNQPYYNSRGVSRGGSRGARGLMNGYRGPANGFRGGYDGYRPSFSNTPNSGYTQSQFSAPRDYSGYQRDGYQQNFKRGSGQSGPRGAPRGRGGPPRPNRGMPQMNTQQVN


biological target: T1, human CAPRIN-1 protein expressed on …; assay: flow cytometry on cancer cells

Row | Binder | binding result
1 | anti-CAPRIN-1 antibody (o) (antibody, V domains shown) VH: EVQLHQFGAELVKPGASVKISCKASGYTFTDYNMDWVKQSHGKSLEWIGDINPNYDSTSYNQKFKGKATLTVDKSSSTAYMELRSLTSEDTAVYYCARSRSYDYEGFAYWGQGTLVTVSA VL: DIQMTQSPASLSASVGETVTITCRASGNIHNYLAWYQQKQGKSPQLLVYNAKTLADGVPSRFSGSGSGTQYSLKINSLQPEDFGSYYCQHFWSTLTFGAGTKLELKR | binds
2 | anti-CAPRIN-1 antibody (e) (antibody, V domains shown) VH: AVTLDESGGGLQTPGGALSLVCKASGFTFSGYDMLWVRQAPGKGLEWVAGIGSTGGGTDYGAAVKGRATISRDNGQSTVRLQLNNLRAEDTATYYCAKVAGGCNSGYCRDSPGSIDAWGHGTEVIVS VL: AVTQQPASVSANPGETVKITCSGGGSRNYYGWYQQKSPGSVPVTVIYYDDQRPSNIPSRFSGALSGSTSTLTITGVQADDEAVYFCGSADSNTYEGSFGAGTTLTVL | binds
3 | anti-CAPRIN-1 antibody (z) (antibody, V domains shown) VH: GPDLVKPGASVKISCKASGYSFTAYYMHWVKQSHGKSLEWIGRVNPNNGGTTYNQKFKGKAILTVDKSSSTAYMELRSLTFEDSAVYYCARRIYYGYFDYWGQGTTVTVSS VL: AFFAVSLGQRATISCKASQSVDYDGDSYMNWYQQKPGQPPKLLIYVASNLESGVPARFSGSGSGTDFTLNIHPVEEEDAATYYCQQSNEDPYTFGGGTKLEIKQ | binds
4 | anti-CAPRIN-1 antibody (a) (antibody, V domains shown) VH: AVTLDESGGGLQMSRGGLSLVCKASGFDFSSYQMNWIRQAPGKGLEFVAAINKFGNSTGHGAAVKGRVTISRDNGQSTVRLQLNNLRAEDTAIYFCTKHAYGYCGSGTWCAAGEIDAWGHGTEVIVSS VL: QAASTQPSSVSANPGETVEITCSGGGSYSYGWFQQKSPGSAPVTVIYYNNKRPSDIPSRFSGSKSGSTGTLTITGVQADDEAVYYCGSGDSTDTAVFGAGTTLTVLG | binds
5 | anti-CAPRIN-1 antibody (j) (antibody, V domains shown) VH: DAELVKPGASVKISCKASGYTFTDHSIHWVQQKPEQGLEWIGYISPGNGNIKYNEKFKGKATLTADKSSSTAYMQLNSLTSEDSAVYFCKRSLGRGGPYYFDYWGQGTTVTVSS VL: DIVLTQAAPSLPVTPGESVSISCRSSKSLLHSNGNTYLYWFLQRPGQSPQLLIYRMSNLASGVPDRFSGSGSGTAFTLRISRVEAEDVGVYYCMQHREYPVTFGSGPN | binds
6 | anti-CAPRIN-1 antibody (af) (antibody, V domains shown) VH: EVQLVESGGGLVQPGGSLRLSCAASGFSLSSHSLGWVRQAPGKGLEWIGDIRSGGSAYYANWAKGRFTISRDNSKNTLYLQMNSLRAEDTAVYYCTRTNGPSDLTNRLDLWGQGTLVTVSS VL: QVLTQSPSSLSASVGDRVTINCQASQSLYNNENLAWFQQKPGKVPKRLIYGASTLASGVSSRFSGSGSGTEFTLTISSLQCEDFAIYYCLGEFSCGSADCFAFGGGTKVEIK | binds
7 | anti-CAPRIN-1 antibody (ah) (antibody, V domains shown) VH: EVQLVESGGGLVQPGGSLRLSCAASGFSLSSHSLGWVRQAPGKGLEWIGDIRSGGSAYYANWAKGRFTISRDNSKNTLYLQMNSLRAEDTAVYYCTRTNGPSDLTNRLDLWGQGTLVTVSS VL: EQVLTQSPSSLSASVGDRVTINCQASQSLYNNENLAWFQQKPGKVPKRLIYGASTLASGVSSRFSGSGSGTEFTLTISNLQPEDFAIYYCLGEFSCGSADCFAFGGGTKVEIK | binds

The remaining lines, values ahead:

Row | binding result | Binder
8 | binds | anti-CAPRIN-1 antibody (c) (antibody, V domains shown) VH: AVTLDESGGGLQTPGGGLSLVCKASGFTFSSFDMGWVRQAPGKGLEFVAQINDAGSRTWYATAVKGRATISRDNGQTTVRLQLNNLRAEDTGTYYCTRGSGYVGAGAIDAWGHGTEVIVS VL: AALTQPSSVSANPGETVKITCSGGSGYYGWYQQQKSPGSAPVTVIYQNDKRPSDIPSRFSGSGSGSTNTLTITGVQAEDEAVYFCGRYDSTDSGIFGAGTTLTVL
9 | binds | anti-CAPRIN-1 antibody (i) (antibody, V domains shown) VH: GAELVRSGASVKMSCKASGYSFTDYNMYWVKQTPGQGLEWIGYIYPGNGGTNYNQKFKGKATLTADTSSSTAYMQISSLTSEDSAVYFCARDYDDGGYAMDYWGQGTTVTVSS VL: DIQMTQSPASLSASVGETVTITCRASGNIHNYLTWYQQKQGKSPQLLVYNAKTLADGVPSRFSGSGSGTQYSLKINRLQPEDFGSYYCQHFWNIPWTFGGGTKLNSR
10 | binds | anti-CAPRIN-1 antibody (b) (antibody, V domains shown) VH: EQSLVESGGGLVQPGGSLRLSCAASGFSLSSHSLGWVRQAPGKGLEWIGDIRSGGSAYYANWAKGRFTISRDNSKNTLYLQMNSLRAEDTAVYYCTRTNGPSDLTNRLDLWGQGTLVTVSS VL: QVLTQSPSSLSASVGDRVTINCQASQSLYNNENLAWFQQKPGKVPKRLIYGASTLASGVSSRFSGSGSGTEFTLTISSLQCEDFAIYYCLGEFSCGSADCFAFGGGTKVEIK
11 | binds | anti-CAPRIN-1 antibody (ag) (antibody, V domains shown) VH: EVQLVESGGGLVQPGGSLRLSCAASGFSLSSHSLGWVRQAPGKGLEWIGDIRSGGSAYYANWAKGRFTISRDNSKNTLYLQMNSLRAEDTAVYFCTRTNGPSDLTNRLDLWGQGTLVTVSS VL: QVLTQSPSSLSASVGDRVTINCQASQSLYNNENLAWFQQKPGKVPKRLIYGASTLASGVSSRFSGSGSGTEFTLTISSLQCEDFAIYYCLGEFSCGSADCFAFGGGTKVEIK
12 | binds | anti-CAPRIN-1 antibody (aj) (antibody, V domains shown) VH: EVQLVESGGGLVQPGGSLRLSCAASGFSLSSHSLGWVRQAPGKGLEWIGDIRSGGSAYYANWAKGRFTISRDNSKNTLYLQMNSLRAEDTAVYYCTRTNGPSDLTNRLDLWGQGTLVTVSS VL: EIVLTQSPSSLSASVGDRVTINCQASQSLYNNENLAWFQQKPGKVPKRLIYGASTLASGVSSRFSGSGSGTEFTLTISNLQPEDFATYYCLGEFSCGSADCFAFGGGTKVEIK
13 | binds | anti-CAPRIN-1 antibody (ai) (antibody, V domains shown) VH: EVQLVESGGGLVQPGGSLRLSCAASGFSLSSHSLGWVRQAPGKGLEWIGDIRSGGSAYYANWAKGRFTISRDNSKNTLYLQMNSLRAEDTAVYFCTRTNGPSDLTNRLDLWGQGTLVTVSS VL: EIVLTQSPSSLSASVGDRVTINCQASQSLYNNENLAWFQQKPGKVPKRLIYGASTLASGVSSRFSGSGSGTEFTLTISNLQPEDFATYYCLGEFSCGSADCFAFGGGTKVEIK
14 | binds | anti-CAPRIN-1 antibody (ak) (antibody, V domains shown) VH: EVQLVESGGGLVQPGGSLRLSCAASGFSLSSHSLGWVRQAPGKGLEWIGDIRSGGSAYYANWAKGRFTISRDNSKNTLYLQMNSLRAEDTAVYFCTRTNGPSDLTNRLDLWGQGTLVTVSS VL: EQVLTQSPSSLSASVGDRVTINCQASQSLYNNENLAWFQQKPGKVPKRLIYGASTLASGVSSRFSGSGSGTEFTLTISNLQPEDFAIYYCLGEFSCGSADCFAFGGGTKVEIK
15 | binds | anti-CAPRIN-1 antibody (d) (antibody, V domains shown) VH: QSLEESGGDLVKPGASLTLTCTASGFSFSGSYYMSWVRQAPGKGLEWIAYIYIGDGVTAYANWAKGRFTISKASSTTVTLQMTSLTAADTATYFCARGNKLWGPGTLVTVSS VL: DVVMTQTPASVEAAVGGTVTIKCQASQSISSYLAWYQQKPGQPPKRLIYDASNLDSGVPSRFKGSGSGTDFTITISDLECADAATYYCQCTAVSSATIYGNAFGGGTEVVVK
